Measured values: the RNAGym collection of RNA variant scans (doi:10.1073/pnas.2313332121)

B1: TPR t1 (parent)
chain: GACCAAUCUGCCCUCAGAGCUCGAGAACAUCUUCGGAUGCAGAGGAGGCAGGCUUCGGUGGCGCGAUAGCGCCAACGUCCUCAACCUCCAAUGCAUCCCACCACAUGAUGAUGCCUGAAGAGCCUUGGUUUUUUG

Variants of: B1
Test: polymerase ribozyme fitness, log enrichment relative to wild type (log ratio); higher = more active; in vitro selection for triplet polymerase activity
Procedure, shortened: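 Fitness measures genotype enrichment against wild-type enrichment on a logarithmic scale, with inverse-variance-weighted averaging of replicates. The logarithm is base 2, and genotypes were kept only with ≥10 input reads and ≥1 read per output in Illumina sequencing. The sequenced libraries came from one triplicate in vitro selection round, including frozen incubation at −7 °C, of PCR-built, transcribed mutant libraries of each subunit of a heterodimeric triplet polymerase ribozyme.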

| Variant | polymerase ribozyme fitness (log ratio) |
| --- | --- |
| GACCAAUCUGCCCUCAGAGCUCGAGAACAUCUACGGAUGCAGAGGAGGCAGGCUUCGGUGGCGCGAUAGCGCCAACGUCCUCAACCUCCAAUGCAUACCACCACAUGAUGAUGCCUGAAGAGGCUUGGUUUUUUG | -4.21 |
| GACCAAUCUGCCCUCAGAGCUCGAGAACAUCUUCGGAUGCAGGGGAGGCAGUCUUCGGUGGCGCGAUAGCGCCAACGUCCUCAACCUCCAAUGCAUCCCACCACAUGAUGAUGCCUGAAGAGCCUUGGUUUUUUG | -2.44 |
| GACCAAUCUGCCCUCAGAGCUCGAGUACAUCUUCGGAUGCAGAGGAGGCUGGCUUCGGUGGCGCGAUAGCGCCAACGUCCUCAACCUCCAAUGCAUCCCACCACAUGAUGAUGCCUGAAGAGCCUUGGUUUUUUG | -4.75 |
| GACCAAUCUGCCCUCAGAGCUCGAGAACAUCUUCGGAUGCAGAGGAGGCAGGCUUCGGUGGCGCGGUAGCGCCAACGUGCUCAACCUCCAAUGCAUCCCACCACAUGAUGAUGCCUGAAGAGCCUUGGUCUUUUG | -3.06 |
| GACCAAUCUGCCCUCAGAGCUCGAGAACAUCUUCGGAUGCAGAGGAGGCAGGCUUCGGUCGCGCGAUAGCGCCAACGUCCUCAACCUCCAAUGCAUCCCACCACAUGAUGAGGCCUGAAGAGCAUUGGUUUUUUG | -0.118 |
| GACCAAUCUGCCCUCAGAGCUCGAGAACAUCUUCGGAUGCAGAGGAGGCAGGCUUGGGUGGCCCGAUAGCGCCAACGUCCUCAACCUCCAAUGCAUCCCACCACAUGAUGAUGCCUGAAGAGCCUUGGUUUUUUG | -2.95 |
| GACCAAUCUGGCCUCAGAGCUCGAGAACAUCUUCGGAUGCAGAGGAGGCAGGCUUCGGUGUCGCGAUAGCGCCAACGUCCUCAACCUCCAAUGCAUCCCACCACAUGAUGAUGCCUGAAGAGCCUUGGUUUUUUG | 0.628 |
| GAUCAAUCUGCCCUCAGAGCUCGAGAACAUCUUCGGAUGCAGAGGAGGCAGGCUUCGGUGACGCGAUAGCGCCAACGUCCUCAACCUCCAAUGCAUCCCACCACAUGAUGAUGCCUGAAGAGCCUUGGUUUUUUG | -0.131 |
| GACCAAUCUGCCCUCGGAGCUCGAGAACAUCUUCGGAUGCAGAGGAGGCAGGCUUCGGUGGCGCGAUAGCGGCAACGUCCUCAACCUCCAAUGCAUCCCACCACAUGAUGAUGCCUGAAGAGCCUUGGUUUUUUG | -1.66 |
| GACCAAUCUGCCCUCAGAGCUCGAGAACAUCUUCGGGUGCAGAGGUGGCAGGCUUAGGUGGCGCGAUAGCGCCAACGUCCUCAACCUCCAAUGCAUCCCACCACAUGAUGAUGCCUGAAAAGCCUUGGUUUUUUG | -1.7 |
| GACCAAUCUGCCUUCAGAGCUCGAGGACAUCUUCGGAUGCAGAGGAGGCAGGCUUCGGUCGCGCGAUAGCGCCAACGUCCUCAACCUCCAAUCCAUCCCACCACAUGAUGAUGCCUGAAGAGCCUUGGUUUUUUG | -3.34 |
| GACCAAUCUGCCCUCAGAGCUCGAGAACAUCUUCGGAUGCUGAGGAGGCUGGAUUCGGUGGCGCGAUAGCGCCAACGUCCUCAACCUCCAAUGCAUCCCACCACAUGAUGAUGCCUGAAGAGCCUUGGUUUUUUG | -3.22 |
| GACCAAGCUGCCCUCAGAGCUCGAGAACAUCUUCGGAUGCAGAGGAGGCAGGCUUCGGUGGCACGAUAGCGCCAACGUCCUCAACCUCCAAUGCAUCCCACUACAUGAUGAUGCCUGAAGAGCCUUGGUUUUUUG | -3.01 |
| GACCAAUCUGCCCUCAGAGCUCGAGAACAUCUUCGGAUGCAGCGGAGGCAGGCUUCGGUGGCGCGAUAGCGCCAACGUCCUCAACCUCCAAUGCAUCCCACCACAUGAUGAUGCGUGAAGAGCCUUGGUUUUUUG | -3.94 |
| GACCAAUCUGCCCUCAGAGCUCGAGAACAUCUUGUGAUGCAGAGGAGGCAGGCUUCGGUCGCGCGAUAGCGCCAACGUCCUCAACCUCCAAUGCAUCCCACCACAUGAUGAUGCCUGAAGAGCCUUCGUUUUUUG | -7.24 |
| GACCAAACUGCCCUCAGAGCUCGAGAACAUCUUCGGAUGCAAAGGAGGCAGGCUUCGGUCGCGCGAUAGCGCCAACGUCCUCAACCUCCAAUGCAUCCCACCACAUGAUGAUGCCUGAAGAGCCUUGGUUUUUUG | -2.37 |
| GACCAAUCUGCCCUCAGAGCUCGAGAACGUCUUCGGAUGCAGAGGAGGCAGGCUUCGGUGACGCGAUAGCGCCAACGUCCUCAACCUCCAAUGCAUCCAACCACAUGAUGACGCCUGAAGAGCAUUGGUUUUUUC | -5.36 |
| GACCAAUCUGCCCUCAGGGCUCGAGAACAUCUUCGGAUGCAGAGGAGGCAGGCUUCGGUGCCGCGAUAGCGCCAACGUCCUCAACCUCCAAUGCAUCCCACCACAUGAUGAUGUCUGAAGAGCCUUGGUUUUUUG | -5.18 |
| GACCAAUCUGCCAUCAGAGCUCGAGAACAUCUUCGGAUGCAGAGGCGGCAGGCUUCGGUGGCGCGAUAGCGCCAACGUCCUCAACCUCCAAUGCAUCCCACCACAUGAUGAUGCCUGAAGAGCGUUGGUUUUUUG | 0.675 |
| GACCAAUCUUCCCUCAGAGCUCGAGAACAUCUUCGGAUGCAGAAGAGGCAGUCUUCGGUGGCGCGAUAGCGCCAACGUCCUCAACCUCCAAUGCAUCCCACCACAUGAUGAUGCCUGAAGAAUGUUGGUGUUUUG | -1.61 |
| GACCAAUCUGCCCUCAGAGCUCGAGAACAUCUUCGGCUGCAGAGGAGGUAGGCUUCGGUGCCGCGAUAGCGCCAACGUCCUCAACCUCCAAUGCAUCCCACCACAUGAUGAUGCCUGAAGAGCCUUGGUUUUUUG | -3.38 |
